B1: FBA: Y. lipolytica fructose-bisphosphate aldolase promoter, SEQ ID NO:161 (nucleic acid, listed as Yarrowia lipolytica)
DNA: TAAACAGTGTACGCAGTACTATAGAGGAACAATTGCCCCGGAGAAGACGGCCAGGCCGCCTAGATGACAAATTCAACAACTCACAGCTGACTTTCTGCCATTGCCACTAGGGGGGGCCTTTTTATATGGCCAAGCCAAGCTCTCCACGTCGGTTGGGCTGCACCCAACAATAAATGGGTAGGGTTGCACCAACAAAGGGATGGGATGGGGGGTAGAAGATACGAGGATAACGGGGCTCAATGGCACAAATAAGAACGAATACTGCCATTAAGACTCGTGATCCAGCGACTGACACCATTGCATCATCTAAGGGCCTCAAAACTACCTCGGAACTGCTGCGCTGATCTGGACACCACAGAGGTTCCGAGCACTTTAGGTTGCACCAAATGTCCCACCAGGTGCAGGCAGAAAACGCTGGAACAGCGTGTACAGTTTGTCTTAACAAAAAGTGAGGGCGCTGAGGTCGAGCAGGGTGGTGTGACTTGTTATAGCCTTTAGAGCTGCGAAAGCGCGTATGGATTTGGCTCATCAGGCCAGATTGAGGGTCTGTGGACACATGTCATGTTAGTGTACTTCAATCGCCCCCTGGATATAGCCCCGACAATAGGCCGTGGCCTCATTTTTTTGCCTTCCGCACATTTCCATTGCTCGGTACCCACACCTTGCTTCTCCTGCACTTGCCAACCTTAATACTGGTTTACATTGACCAACATCTTACAAGCGGGGGGCTTGTCTAGGGTATATATAAACAGTGGCTCTCCCAATCGGTTGCCAGTCTCTTTTTTCCTTTCTTTCCCCACAGATTCGAAATCTAAACTACACATCACACAATGCCTGTTACTGACGTCCTTAAGCGAAAGTCCGGTGTCATCGTCGGCGACGATGTCCGAGCCGTGAGTATCCACGACAAGATCAGTGTCGAGACGACGCGTTTTGTGTAATGACACAATCCGAAAGTCGCTAGCAACACACACTCTCTACACAAACTAACCCAGCTCTCC
modifications: misc_feature: Promoter FBA
B2: FBAIN: fructose-bisphosphate aldolase + intron promoter, SEQ ID NO:162 (nucleic acid, listed as Yarrowia lipolytica)
DNA: AAATTGCCCCGGAGAAGACGGCCAGGCCGCCTAGATGACAAATTCAACAACTCACAGCTGACTTTCTGCCATTGCCACTAGGGGGGGGCCTTTTTATATGGCCAAGCCAAGCTCTCCACGTCGGTTGGGCTGCACCCAACAATAAATGGGTAGGGTTGCACCAACAAAGGGATGGGATGGGGGGTAGAAGATACGAGGATAACGGGGCTCAATGGCACAAATAAGAACGAATACTGCCATTAAGACTCGTGATCCAGCGACTGACACCATTGCATCATCTAAGGGCCTCAAAACTACCTCGGAACTGCTGCGCTGATCTGGACACCACAGAGGTTCCGAGCACTTTAGGTTGCACCAAATGTCCCACCAGGTGCAGGCAGAAAACGCTGGAACAGCGTGTACAGTTTGTCTTAACAAAAAGTGAGGGCGCTGAGGTCGAGCAGGGTGGTGTGACTTGTTATAGCCTTTAGAGCTGCGAAAGCGCGTATGGATTTGGCTCATCAGGCCAGATTGAGGGTCTGTGGACACATGTCATGTTAGTGTACTTCAATCGCCCCCTGGATATAGCCCCGACAATAGGCCGTGGCCTCATTTTTTTGCCTTCCGCACATTTCCATTGCTCGGTACCCACACCTTGCTTCTCCTGCACTTGCCAACCTTAATACTGGTTTACATTGACCAACATCTTACAAGCGGGGGGCTTGTCTAGGGTATATATAAACAGTGGCTCTCCCAATCGGTTGCCAGTCTCTTTTTTCCTTTCTTTCCCCACAGATTCGAAATCTAAACTACACATCACACAATGCCTGTTACTGACGTCCTTAAGCGAAAGTCCGGTGTCATCGTCGGCGACGATGTCCGAGCCGTGAGTATCCACGACAAGATCAGTGTCGAGACGACGCGTTTTGTGTAATGACACAATCCGAAAGTCGCTAGCAACACACACTCTCTACACAAACTAACCCAGCTCTCC
modifications: misc_feature: Promoter FBAIN

Experiments:
[1] = test system: β-glucuronidase (GUS) reporter; assay: Comparative analysis of promoters by fluorometric assay of GUS expression; assay type: cell-based, Yarrowia lipolytica; conditions: for GUS activity relative to the GPD promoter: ATCC #76982 strains, FIG. 6A
Description: GUS activity was also assayed by fluorometric determination of the production of 4-methylumbelliferone (4-MU) from the corresponding substrate β-glucuronide (Jefferson, R. A. Plant Mol. Biol. Reporter 5:387-405 (1987)).
Yarrowia lipolytica ATCC #76982 strains containing plasmids pY5-30, PYZGDG, PYZGMG, pDMW212 and pDMW214 were grown from single colonies in 3 mL MM (as described above) at 30° C. to an OD600˜1.0. Then, the 3 mL cultures were each added to a 500 mL flask containing 50 mL MM and grown in a shaking incubator at 30° C. for about 24 hrs. The cells were collected by centrifugation, resuspended in Promega Cell Lysis Buffer and lysed using the BIO 101 Biopulverizer system (Vista, Calif.). After centrifugation, the supernatants were removed and kept on ice.
Similarly, Y. lipolytica strain Y2034 containing plasmids pY5-30, pYAT-GUS, pYGPAT-GUS and pDMW214 constructs, respectively, were grown from single colonies in 10 mL SD medium at 30° C. for 48 hrs to an OD600˜5.0. Two mL of each culture was collected for GUS activity assays, as described below, while 5 mL of each culture was switched into HGM.
Specifically, cells from the 5 mL aliquot were collected by centrifugation, washed once with 5 mL of HGM and resuspended in HGM. The cultures in HGM were then grown in a shaking incubator at 30° C. for 24 hrs. Two mL of each HGM culture were collected for the GUS activity assay, while the remaining culture was allowed to grow for an additional 96 hrs before collecting an additional 2 mL of each culture for the assay.
Each 2 mL culture sample in SD medium was resuspended in 1 mL of 0.5× cell culture lysis reagent (Promega). Resuspended cells were mixed with 0.6 mL of glass beads (0.5 mm diameter) in a 2.0 mL screw cap tube with a rubber O-ring. The cells were then homogenized in a Biospec mini beadbeater (Bartlesville, Okla.) at the highest setting for 90 sec. The homogenization mixtures were centrifuged for 2 min at 14,000 rpm in an Eppendof centrifuge to remove cell debris and beads. The supernatant was used for GUS assay and protein determination.
For each fluorometric assay, 100 μl of extract was added to […] of GUS assay buffer (2 mM 4-methylumbelliferyl-β-D-glucuronide (“MUG”) in extraction buffer) or 200 μl of extract was added to 800 μl of GUS assay buffer. The mixtures were placed at 37° C. Aliquots of 100 μl were taken at 0, 30 and 60 min time points and added to 900 μl of stop buffer (1 M Na2CO3). Each time point was read using a CytoFluor Series 4000 Fluorescence Multi-Well Plate Reader (PerSeptive Biosystems, Framingham, Mass.) set to an excitation wavelength of 360 nm and an emission wavelength of 455 nm. Total protein concentration of each sample was determined using 10 μl of extract and 200 μl of BioRad Bradford reagent or 20 μl of extract and 980 μl of BioRad Bradford reagent (Bradford, M. M. Anal. Biochem. 72:248-254 (1976)). GUS activity was expressed as nmoles of 4-MU per minute per mg of protein.

[2] = test system: β-glucuronidase (GUS) reporter; assay: Relative promoter activity rank from comparative GUS reporter studies (histochemical, fluorometric and/or Real Time PCR); assay type: cell-based, Yarrowia lipolytica; parameters: key: a ‘1’ corresponds to the promoter with lowest activity; a ‘7’ corresponds to the promoter with highest activity; conditions: relative to other promoters
Outline: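 GUS activity from each promoter construct was measured by histochemical and/or fluorometric assays and/or Real Time PCR. Promoters were ranked relative to one another, from 1 (lowest activity) to 7 (highest activity).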

Molecule | GUS activity relative to the GPD promoter [1] | Activity “Rank” [2] | GUS activity ([1]; strain Y2034, 24 hr, HGM) | GUS activity ([1]; strain Y2034, 48 hr, SD) | GUS activity ([1]; strain Y2034, 120 hr HGM) | reduction of promoter activity ([1]; switched from SD medium into HGM for 24 hrs)
B1 | 2.2 times | 4 |  |  |  | 
B2 | about 6.6 times | 7 | 30.694 nmoles of 4-MU per minute per mg of protein | 43.333 nmoles of 4-MU per minute per mg of protein | 17.200 nmoles of 4-MU per minute per mg of protein | 30%

Source: patent publication US7588931B2, “High arachidonic acid producing strains of Yarrowia lipolytica” (E. I. du Pont de Nemours and Company, priority 2004, dated 2009)
